In article PMC4244197 (Molecular Biology of the Cell, 2014):

Target: T1, GST-17NAnk (GST-tagged N-terminal cytosolic domain of zDHHC17, amino acids 11-305) (mouse, UniProt Q80TN5-1 11-305)
T1 sequence (looked up): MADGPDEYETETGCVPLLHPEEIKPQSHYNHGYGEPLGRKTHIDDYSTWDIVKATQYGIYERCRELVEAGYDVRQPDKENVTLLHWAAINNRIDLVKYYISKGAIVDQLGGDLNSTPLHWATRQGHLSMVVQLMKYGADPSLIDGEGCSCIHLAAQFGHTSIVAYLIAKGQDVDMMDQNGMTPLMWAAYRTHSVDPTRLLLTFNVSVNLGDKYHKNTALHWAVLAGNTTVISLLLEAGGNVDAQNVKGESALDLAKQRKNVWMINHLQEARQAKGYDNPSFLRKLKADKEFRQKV
Test: pull-down

B1: Myc-tagged CSP, palmitoylated (p) (natural protein, UniProt Q29455 1-198, looked up)
chain: MADQRQRSLSTSGESLYHVLGLDKNATSDDIKKSYRKLALKYHPDKNPDNPEAADKFKEINNAHAILTDATKRNIYDKYGSLGLYVAEQFGEENVNTYFVLSSWWAKALFIFCGLLTCCYCCCCLCCCFNCCCGKCKPKAPEGEETEFYVSPEDLEAQLQSDEREAADTPIVIQPASATETTQLTADSHPSYHTDGFN
modifications: palmitoylated (S-acylated) cysteines, positions not given
With B1 the “fold lower binding than nonpalmitoylated Myc-CSP” value was 6 fold.
